In paper PMC13635227 (Nature Communications, 2026):
The star is where a group is joined. Biotin = O=C1N[C@H]2[C@H](CS[C@H]2CCCCC(=O)*)N1; AEEA = NCCOCCOCC(=O)O

Key:
Assay in all cases: BLI
[1] = target: T1, Biotin-PEG-EAEEPSLLKKLLLAPANTQ-NH2 (LXXLL motif peptide, amino acids 135-153 of PPAR coactivator 1α, PGC-1α) (SMILES …)
T1 peptide: {Biotin-AEEA}-EAEEPSLLKKLLLAPANTQ-NH2

[2] = target: T1, Biotin-PEG-EAEEPSLLKKLLLAPANTQ-NH2 …
[3] = target: T1, Biotin-PEG-EAEEPSLLKKLLLAPANTQ-NH2 …

B1: Full-length mouse PPAR-α (peroxisome proliferator-activated receptor α), tag-free (natural protein, UniProt P23204 1-468, looked up)
chain: MVDTESPICPLSPLEADDLESPLSEEFLQEMGNIQEISQSIGEESSGSFGFADYQYLGSCPGSEGSVITDTLSPASSPSSVSCPVIPASTDESPGSALNIECRICGDKASGYHYGVHACEGCKGFFRRTIRLKLVYDKCDRSCKIQKKNRNKCQYCRFHKCLSVGMSHNAIRFGRMPRSEKAKLKAEILTCEHDLKDSETADLKSLGKRIHEAYLKNFNMNKVKARVILAGKTSNNPPFVIHDMETLCMAEKTLVAKMVANGVEDKEAEVRFFHCCQCMSVETVTELTEFAKAIPGFANLDLNDQVTLLKYGVYEAIFTMLSSLMNKDGMLIAYGNGFITREFLKNLRKPFCDIMEPKFDFAMKFNALELDDSDISLFVAAIICCGDRPGLLNIGYIEKLQEGIVHVLKLHLQSNHPDDTFLFPKLLQKMVDLRQLVTEHAQLVQVIKKTESDAALHPLLQEIYRDMY
[1]
  EC50 of ciprofibrate (small-molecule ligand of PPAR-α) in promoting the binding: 5.4 µM
[2]
  EC50 of palmitic acid (small-molecule ligand of PPAR-α) in promoting the binding: 190 µM
[3]
  EC50 of TFA (small-molecule ligand of PPAR-α) in promoting the binding: 4900 µM
